# Assay results published in paper doi:10.1101/2024.01.20.576400 (bioRxiv, 2024).
# T1: Pwl2 without the signal peptide (residues 22-145) (Magnaporthe oryzae, UniProt G5EI71 22-145)
# T1 sequence: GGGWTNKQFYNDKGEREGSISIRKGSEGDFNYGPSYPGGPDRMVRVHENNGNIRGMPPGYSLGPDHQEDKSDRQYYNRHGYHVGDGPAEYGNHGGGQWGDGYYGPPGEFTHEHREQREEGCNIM
# B1: HMA domain of OsHIPP43 (residues 26-101) (domain or fragment)
# chain: RPLQTVNIKVKMDCEGCERRVKNAVKSMRGVTSVAVNPKQSRCTVTGYVEASKVLERVKSTGKAAEMWPYVPYTMT
# Target: T1, Pwl2 without the signal peptide …
# Assay: ITC
binder,measurement,value
B1,Kd,191 nM
same,dH,-67.6 kcal/mol
